What is called Kd is the concentration at which binding is half-saturated.

Binding result and Kd data for three molecules are collected here from US20230357444A1 (published 2023).

The target in assay [1] is T1, human CD3 (native CD3 complex on human T cells) (human, UniProt P07766 23-207).
T1 construct: whole, on cells; also called human CD3+ T cell line HPB-ALL; human CD3 positive PBMC
Briefly: FACS, HPB-ALL.

Assay [2] has as its target T2, 1-27 CD3-Fc (N-terminal amino acids 1-27 of the mature human CD3 epsilon chain fused to the hinge and Fc … (human)).
T2 construct: The construct was made with a 19 aa immunoglobulin leader; also called 27 aa huCD3E; human CD3 epsilon (aa 1-27)-Fc fusion protein
Briefly: SPR (Biacore), 1-27 CD3-Fc immobilised. (SPR reads the build-up and loss of mass on a sensor chip optically.)

Numbering of substitutions follows the chain as printed. In names and notes the source's numbering stands.

T1 sequence (P07766 23-207, one chain of several): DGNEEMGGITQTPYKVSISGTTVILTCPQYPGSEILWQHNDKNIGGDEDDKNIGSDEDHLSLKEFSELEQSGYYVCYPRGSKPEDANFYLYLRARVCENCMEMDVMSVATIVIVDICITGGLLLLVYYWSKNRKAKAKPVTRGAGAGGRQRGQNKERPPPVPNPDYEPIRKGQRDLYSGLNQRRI

B1: MCSP-G4 HLP × E2M HLP (bispecific antibody)
chain: QVQLVQSGAEVKRPGASMKVSCKASGYTFTNYYIHWVRQAPGQGLEWMGWINPNSGATNYAQKFQGRVTMTRDTSTSTVYMELSSLRSEDTAVYYCAKSWVSWFASWGQGTLVTVSSGGGGSGGGGSGGGGSELVMTQSPDSLAVSLGERATINCKSSQSVLNSSNNRNYLAWYQQKPGQPPKLLIYWASTRESGVPDRFSGSGSGTDFTLTISGLQAEDVAVYYCQQHYSTPFTFGPGTKVDIKSGGGGSEVQLLESGGGLVQPGGSLKLSCAASGFTFNGYAMNWVRQAPGKGLEWVARIRSKYNNYATYYADSVKERFTISRDDSKNTAYLQMNNLKTEDTAVYYCVRHRNFGNSYLSWFAYWGQGTLVTVSSGGGGSGGGGSGGGGSELVVTQEPSLTVSPGGTVTLTCRSSTGAVTSGYYPNWVQQKPGQAPRGLIGATDMRPSGTPARFSGSLLGGKAALTLSGVQPEDEAEYYCALWYSNRWVFGGGTKLTVLHHHHHH
Turning to B1, the binding result in assay [1] is “binds”.

B2: EGFR-21-63 LH × A2J HLP (bispecific antibody)
chain: DIVLTQSPASLPVSLGQRATISCRASQSVSSSTYSYIHWYQQKPGQPPKLLITYASNLESGVPARFSGSGSGTDFTLDIHPVEEDDSSTYYCQHSWEIPFTFGSGTKLEIKGGGGSGGGGSGGGGSQVQLQQSGPDLVKPGASVKMSCKASGHTFTDCVIIWVKQRAGQGLEWIGQIYPGTGRSYYNEIFKGKATLTADKSSNTVHIQLSSLTSEDSAVYFCALSTLIHGTWFSYWGQGTLVTVSSGGGGSEVQLLESGGGLVQPGGSLKLSCAASGFTFNVYAMNWVRQAPGKGLEWVARIRSKYNNYATYYADSVKKRFTISRDDSKNTAYLQMNNLKTEDTAVYYCVRHGNFGNSYLSWWAYWGQGTLVTVSSGGGGSGGGGSGGGGSELVVTQEPSLTVSPGGTVTLTCRSSTGAVTSGYYPNWVQQKPGQAPRGLIGATDMRPSGTPARFSGSLLGGKAALTLSGVQPEDEAEYYCALWYSNRWVFGGGTKLTVLHHHHHH
notes: also called EGFR LH × A2J HLP
As to B2, the affinity in assay [2], expressed as Kd, was 249 nM.

B3: EGFR-21-63 LH × E2M HLP (bispecific antibody)
chain: B2 chain with V282G, K319E, G353R, W363F
notes: also called EGFR LH × E2M HLP
In turn, B3 registered a Kd in assay [2] of 2460 nM.
